{"source": "paper doi:10.1101/2025.02.25.640118", "about": "(bioRxiv, 2025)", "molecules": {"B1": {"name": "HUαα-MsyB complex (complex, E. coli)", "chain 1": "MNKTQLIDVIAEKAELSKTQAKAALESTLAAITESLKEGDAVQLVGFGTFKVNHRAERTGRNPQTGKEIKIAAANVPAFVSGKALKDAVK", "chain 2": "MTMYATLEEAIDAAREEFLADNPGIDAEDANVQQFNAQKYVLQDGDIMWQVEFFADEGEEGECLPMLSGEAAQSVFDGDYDEIEIRQEWQEENTLHEWDEGEFQLEPPLDTEEGRAAADEWDER"}, "B2": {"name": "MsyB (Escherichia coli protein MsyB) (natural protein, E. coli, UniProt P25738 1-124, looked up)", "chain": "B1 chain 2"}, "B3": {"name": "dsDNA (DNA1/DNA2), 21 bp (dsDNA)", "DNA 1": "TGCTTATCAATTTGTTGCACC", "DNA 2": "GGTGCAACAAATTGATAAGCA"}}, "key": {"[1]": {"molecular_target": "MsyB (Escherichia coli protein MsyB) (E. coli) (UniProt P25738)", "assay": "BLI"}, "[2]": {"molecular_target": "MsyB (Escherichia coli protein MsyB) (E. coli) (UniProt P25738)", "assay": "SEC"}, "[3]": {"molecular_target": "β-clamp (β subunit of DNA polymerase) (E. coli, UniProt P0A988 1-366)", "sequence (P0A988 whole entry)": "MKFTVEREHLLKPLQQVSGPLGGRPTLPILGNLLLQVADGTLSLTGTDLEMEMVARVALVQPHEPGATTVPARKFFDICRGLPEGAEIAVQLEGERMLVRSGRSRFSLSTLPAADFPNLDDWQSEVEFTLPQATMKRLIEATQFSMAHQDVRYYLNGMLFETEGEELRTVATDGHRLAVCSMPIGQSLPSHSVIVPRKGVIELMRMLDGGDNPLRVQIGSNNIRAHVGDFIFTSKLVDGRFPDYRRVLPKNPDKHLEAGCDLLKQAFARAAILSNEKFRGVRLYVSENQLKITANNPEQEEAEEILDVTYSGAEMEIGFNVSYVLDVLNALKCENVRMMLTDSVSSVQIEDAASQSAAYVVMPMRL", "assay": "BLI"}, "IHF": {"molecular_target": "T1, IHF (E. coli, UniProt P0A6X7 1-99; P0A6Y1 1-94)", "T1 sequence (looked up) 1": "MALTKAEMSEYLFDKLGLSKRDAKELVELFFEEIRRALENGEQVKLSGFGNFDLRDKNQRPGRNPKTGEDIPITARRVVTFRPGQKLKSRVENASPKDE", "T1 sequence (looked up) 2": "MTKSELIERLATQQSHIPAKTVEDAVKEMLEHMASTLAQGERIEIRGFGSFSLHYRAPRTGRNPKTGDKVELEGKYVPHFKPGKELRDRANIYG"}, "HUαβ": {"molecular_target": "T2, HUαβ (E. coli, UniProt P0ACF0 1-90; P0ACF4 1-90)", "T2 sequence (looked up) 1": "B1 chain 1", "T2 sequence (looked up) 2": "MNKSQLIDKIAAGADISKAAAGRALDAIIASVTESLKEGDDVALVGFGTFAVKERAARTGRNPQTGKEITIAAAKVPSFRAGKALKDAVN", "assay": "BLI"}, "[4]": {"molecular_target": "HUαα (HU alpha homodimer) (Escherichia coli, UniProt P0ACF0 1-90)", "assay": "EMSA"}}}
{"molecule": "HUαα (from UniProt P0ACF0 1-90) (natural protein)", "values": [{"measurement": "Kd", "setting": "[1]", "value": 4.88, "unit": "nM"}, {"measurement": "stoichiometry N", "setting": "[2]", "value": 1}]}
{"molecule": "β-clamp (β subunit of DNA polymerase) (from UniProt P0A988 1-366) (natural protein)", "values": [{"measurement": "Kd", "setting": "[1]", "value": 700, "unit": "nM"}]}
{"molecule": "B1", "values": [{"measurement": "Kd", "setting": "[3]", "value": 500, "unit": "nM"}]}
{"molecule": "B2", "values": [{"measurement": "Kd", "setting": "IHF", "value": 95, "unit": "nM"}, {"measurement": "Kd", "setting": "HUαβ", "value": 3.22, "unit": "nM"}]}
{"molecule": "B3", "values": [{"measurement": "binding result", "setting": "[4]", "value": "binds"}]}
